Kd data for 23 molecules are collected here from publication PMC10786891, “Massively parallel profiling of RNA-targeting CRISPR-Cas13d”.

B1: target 1 C6G,A9C (mixed)
RNA 1: CACCCGUGCAAAAAUGCAGGGGUCUAAAACUGAGCGGAUAACCUCUCUAUGG
RNA 2: GGGAAUGGAUCCACAUCUACGAAUUCGUACCAUAGAGAGGUUCUCGGCUCACCGAGAUCGGAAGAGCACACGU
B2: target 1 C2A,A18U (mixed)
RNA 1: CACCCGUGCAAAAAUGCAGGGGUCUAAAACUGAGCGGAUAACCUCUCUAUGG
RNA 2: GGGAAUGGAUCCACAUCUACGAAUUCGUACCAUUGAGAGGUUAUCCGCUAACCGAGAUCGGAAGAGCACACGU
B3: target 1 insG 3' of 19,insG 3' of 1 (mixed)
RNA 1: CACCCGUGCAAAAAUGCAGGGGUCUAAAACUGAGCGGAUAACCUCUCUAUGG
RNA 2: GGGAAUGGAUCCACAUCUACGAAUUCGUACCAUGAGAGAGGUUAUCCGCUCAGCCGAGAUCGGAAGAGCACACGU
B4: target 1 C4G,G5U (mixed)
RNA 1: CACCCGUGCAAAAAUGCAGGGGUCUAAAACUGAGCGGAUAACCUCUCUAUGG
RNA 2: GGGAAUGGAUCCACAUCUACGAAUUCGUACCAUAGAGAGGUUAUCCUGUCACCGAGAUCGGAAGAGCACACGU
B5: target 1 insA 3' of 6,insC 3' of 3 (mixed)
RNA 1: CACCCGUGCAAAAAUGCAGGGGUCUAAAACUGAGCGGAUAACCUCUCUAUGG
RNA 2: GGGAAUGGAUCCACAUCUACGAAUUCGUACCAUAGAGAGGUUAUCCAGCUCCACCGAGAUCGGAAGAGCACACGU
B6: target 1 insU 3' of 21,insU 3' of 20 (mixed)
RNA 1: CACCCGUGCAAAAAUGCAGGGGUCUAAAACUGAGCGGAUAACCUCUCUAUGG
RNA 2: GGGAAUGGAUCCACAUCUACGAAUUCGUACCUAUUAGAGAGGUUAUCCGCUCACCGAGAUCGGAAGAGCACACGU
B7: target 1 insG 3' of 7,insG 3' of 6 (mixed)
RNA 1: CACCCGUGCAAAAAUGCAGGGGUCUAAAACUGAGCGGAUAACCUCUCUAUGG
RNA 2: GGGAAUGGAUCCACAUCUACGAAUUCGUACCAUAGAGAGGUUAUCGCGGCUCACCGAGAUCGGAAGAGCACACGU
B8: target 1 A1U,U10G (mixed)
RNA 1: CACCCGUGCAAAAAUGCAGGGGUCUAAAACUGAGCGGAUAACCUCUCUAUGG
RNA 2: GGGAAUGGAUCCACAUCUACGAAUUCGUACCAUAGAGAGGUGAUCCGCUCUCCGAGAUCGGAAGAGCACACGU
B9: target 1 insC 3' of 11,insC 3' of 5 (mixed)
RNA 1: CACCCGUGCAAAAAUGCAGGGGUCUAAAACUGAGCGGAUAACCUCUCUAUGG
RNA 2: GGGAAUGGAUCCACAUCUACGAAUUCGUACCAUAGAGAGGUCUAUCCGCCUCACCGAGAUCGGAAGAGCACACGU
B10: target 1 insG 3' of 19,insC 3' of 1 (mixed)
RNA 1: CACCCGUGCAAAAAUGCAGGGGUCUAAAACUGAGCGGAUAACCUCUCUAUGG
RNA 2: GGGAAUGGAUCCACAUCUACGAAUUCGUACCAUGAGAGAGGUUAUCCGCUCACCCGAGAUCGGAAGAGCACACGU
B11: target 1 insC 3' of 12,insU 3' of 7 (mixed)
RNA 1: CACCCGUGCAAAAAUGCAGGGGUCUAAAACUGAGCGGAUAACCUCUCUAUGG
RNA 2: GGGAAUGGAUCCACAUCUACGAAUUCGUACCAUAGAGAGGCUUAUCUCGCUCACCGAGAUCGGAAGAGCACACGU
B12: target 1 G13A,A16C (mixed)
RNA 1: CACCCGUGCAAAAAUGCAGGGGUCUAAAACUGAGCGGAUAACCUCUCUAUGG
RNA 2: GGGAAUGGAUCCACAUCUACGAAUUCGUACCAUAGCGAAGUUAUCCGCUCACCGAGAUCGGAAGAGCACACGU
B13: target 1 insC 3' of 15,insG 3' of 1 (mixed)
RNA 1: CACCCGUGCAAAAAUGCAGGGGUCUAAAACUGAGCGGAUAACCUCUCUAUGG
RNA 2: GGGAAUGGAUCCACAUCUACGAAUUCGUACCAUAGAGCAGGUUAUCCGCUCAGCCGAGAUCGGAAGAGCACACGU
B14: target 1 A1C,U10G (mixed)
RNA 1: CACCCGUGCAAAAAUGCAGGGGUCUAAAACUGAGCGGAUAACCUCUCUAUGG
RNA 2: GGGAAUGGAUCCACAUCUACGAAUUCGUACCAUAGAGAGGUGAUCCGCUCCCCGAGAUCGGAAGAGCACACGU
B15: target 1 insA 3' of 11,insA 3' of 4 (mixed)
RNA 1: CACCCGUGCAAAAAUGCAGGGGUCUAAAACUGAGCGGAUAACCUCUCUAUGG
RNA 2: GGGAAUGGAUCCACAUCUACGAAUUCGUACCAUAGAGAGGUAUAUCCGCAUCACCGAGAUCGGAAGAGCACACGU
B16: target 1 A1U,U19G (mixed)
RNA 1: CACCCGUGCAAAAAUGCAGGGGUCUAAAACUGAGCGGAUAACCUCUCUAUGG
RNA 2: GGGAAUGGAUCCACAUCUACGAAUUCGUACCAGAGAGAGGUUAUCCGCUCUCCGAGAUCGGAAGAGCACACGU
B17: target 1 insG 3' of 19,insA 3' of 2 (mixed)
RNA 1: CACCCGUGCAAAAAUGCAGGGGUCUAAAACUGAGCGGAUAACCUCUCUAUGG
RNA 2: GGGAAUGGAUCCACAUCUACGAAUUCGUACCAUGAGAGAGGUUAUCCGCUCAACCGAGAUCGGAAGAGCACACGU
B18: target 1 insG 3' of 19,insU 3' of 1 (mixed)
RNA 1: CACCCGUGCAAAAAUGCAGGGGUCUAAAACUGAGCGGAUAACCUCUCUAUGG
RNA 2: GGGAAUGGAUCCACAUCUACGAAUUCGUACCAUGAGAGAGGUUAUCCGCUCAUCCGAGAUCGGAAGAGCACACGU
B19: target 1 insA 3' of 7,insU 3' of 7 (mixed)
RNA 1: CACCCGUGCAAAAAUGCAGGGGUCUAAAACUGAGCGGAUAACCUCUCUAUGG
RNA 2: GGGAAUGGAUCCACAUCUACGAAUUCGUACCAUAGAGAGGUUAUCAUCGCUCACCGAGAUCGGAAGAGCACACGU
B20: target 1 G12U,A14C (mixed)
RNA 1: CACCCGUGCAAAAAUGCAGGGGUCUAAAACUGAGCGGAUAACCUCUCUAUGG
RNA 2: GGGAAUGGAUCCACAUCUACGAAUUCGUACCAUAGAGCGUUUAUCCGCUCACCGAGAUCGGAAGAGCACACGU
B21: target 1 insU 3' of 7 (mixed)
RNA 1: CACCCGUGCAAAAAUGCAGGGGUCUAAAACUGAGCGGAUAACCUCUCUAUGG
RNA 2: GGGAAUGGAUCCACAUCUACGAAUUCGUACCAUAGAGAGGUUAUCUCGCUCACCGAGAUCGGAAGAGCACACGU
B22: target 1 insA 3' of 6,insA 3' of 4 (mixed)
RNA 1: CACCCGUGCAAAAAUGCAGGGGUCUAAAACUGAGCGGAUAACCUCUCUAUGG
RNA 2: GGGAAUGGAUCCACAUCUACGAAUUCGUACCAUAGAGAGGUUAUCCAGCAUCACCGAGAUCGGAAGAGCACACGU
B23: target 1 insG 3' of 11,insG 3' of 8 (mixed)
RNA 1: CACCCGUGCAAAAAUGCAGGGGUCUAAAACUGAGCGGAUAACCUCUCUAUGG
RNA 2: GGGAAUGGAUCCACAUCUACGAAUUCGUACCAUAGAGAGGUGUAUGCCGCUCACCGAGAUCGGAAGAGCACACGU

The target of the data set is T1, EsCas13d, nuclease-dead (Eubacterium siraeum, UniProt B0MS50, R295A;H300A;R849A;H854A).
T1 sequence: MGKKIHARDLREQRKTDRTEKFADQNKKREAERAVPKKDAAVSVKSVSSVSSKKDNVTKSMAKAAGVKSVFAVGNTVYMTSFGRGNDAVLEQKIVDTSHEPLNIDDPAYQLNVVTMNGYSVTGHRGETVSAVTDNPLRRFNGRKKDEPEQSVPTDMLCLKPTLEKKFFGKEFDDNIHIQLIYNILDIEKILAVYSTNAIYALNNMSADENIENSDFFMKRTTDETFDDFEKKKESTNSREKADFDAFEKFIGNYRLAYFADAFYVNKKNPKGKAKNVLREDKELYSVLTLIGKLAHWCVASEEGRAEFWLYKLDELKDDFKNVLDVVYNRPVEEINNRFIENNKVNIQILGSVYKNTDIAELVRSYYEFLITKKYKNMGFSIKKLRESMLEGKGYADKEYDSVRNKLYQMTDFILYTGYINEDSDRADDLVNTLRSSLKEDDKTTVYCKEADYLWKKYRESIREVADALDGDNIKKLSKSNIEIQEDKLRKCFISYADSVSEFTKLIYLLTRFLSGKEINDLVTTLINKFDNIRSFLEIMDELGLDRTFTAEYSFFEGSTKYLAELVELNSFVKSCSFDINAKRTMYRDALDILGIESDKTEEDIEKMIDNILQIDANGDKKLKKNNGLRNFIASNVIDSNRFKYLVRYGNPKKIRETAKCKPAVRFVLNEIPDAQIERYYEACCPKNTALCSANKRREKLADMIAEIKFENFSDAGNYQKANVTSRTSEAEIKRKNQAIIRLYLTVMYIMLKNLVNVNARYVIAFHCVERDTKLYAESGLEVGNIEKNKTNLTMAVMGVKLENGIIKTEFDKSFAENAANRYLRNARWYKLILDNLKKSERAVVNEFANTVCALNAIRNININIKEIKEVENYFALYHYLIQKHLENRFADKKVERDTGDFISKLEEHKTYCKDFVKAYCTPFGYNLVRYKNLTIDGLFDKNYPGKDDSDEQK
In words: crRNA (strand 1, pre-loaded); Mg2+; 40 mM Tris-HCl pH 7.5, 150 mM NaCl, 6 mM MgCl2, 1 mM DTT, 0.1% Tween-20, 0.2 mg/ml BSA; 25 C; 10 min per concentration, then washed. The conditions noted are these: tags: His6-TwinStrep-SUMO cleaved; N-terminal SNAP kept (SNAP-Surface 488); label: 3' end held by stalled T7 RNA polymerase.
As for B1, the Kd worked out at 11.7 ± 0.6 nM.
Turning to B2, the Kd is 24.2 ± 1.2 nM.
B3 showed a Kd of 87 ± 26 nM.
The figure for B4 is 34.2 ± 2.7 nM; for B5 it is 20 ± 1.3 nM.
Molecule B6 yielded an equilibrium dissociation constant (Kd) of 27.8 ± 3.3 nM.
Turning to B7, binding was put at a Kd of 8.54 ± 0.3 nM.
The figure for B8 is 26.4 ± 2.4 nM.
For the molecule B9, the Kd came to 18.2 ± 1.4 nM.
B10 gave a Kd of 59 ± 7 nM.
B11 yielded a Kd of 26.9 ± 1.9 nM.
In the case of B12 it was 28.8 ± 1.6 nM.
In the case of B13 it was 16.7 ± 1.3 nM; in that of B14, 26 ± 5 nM; in that of B15, 9.6 ± 0.6 nM.
With B16, the affinity, expressed as Kd, was 63 ± 12 nM.
B17 showed a Kd of 85 ± 26 nM.
In the case of B18, the Kd worked out at 63 ± 16 nM.
Regarding B19, the Kd turned out to be 6.31 ± 0.23 nM.
In turn, B20 displayed a Kd of 42 ± 6 nM.
In the case of B21 it was 14.8 ± 1.2 nM; in that of B22, 28.5 ± 2.8 nM; in that of B23, 33.3 ± 1.5 nM.

One may read the Kd as the equilibrium constant for the complex coming apart. Read a low Kd as higher affinity.
